Measured values as given in patent US20180066070.

B1: Sirtuin (silent mating type information regulation 2 homolog) 1 (protein)
chain: MADEAALALQPGGSPSAAGADREAASSPAGEPLRKRPRRDGPGLERSPGEPGGAAPEREVPAAARGCPGAAAAALWREAEAEAAAAGGEQEAQATAAAGEGDNGPGLQGPSREPPLADNLYDEDDDDEGEEEEEAAAAAIGYRDNLLFGDEIITNGFHSCESDEEDRASHASSSDWTPRPRIGPYTFVQQHLMIGTDPRTILKDLLPETIPPPELDDMTLWQIVINILSEPPKRKKRKDINTIEDAVKLLQECKKIIVLTGAGVSVSCGIPDFRSRDGIYARLAVDFPDLPDPQAMFDIEYFRKDPRPFFKFAKEIYPGQFQPSLCHKFIALSDKEGKLLRNYTQNIDTLEQVAGIQRIIQCHGSFATASCLICKYKVDCEAVRGDIFNQVVPRCPRCPADEPLAIMKPEIVFFGENLPEQFHRAMKYDKDEVDLLIVIGSSLKVRPVALIPSSIPHEVPQILINREPLPHLHFDVELLGDCDVIINELCHRLGGEYAKLCCNPVKLSEITEKPPRTQKELAYLSELPPTPLHVSEDSSSPERTSPPDSSVIVTLLDQAAKSNDDLDVSESKGCMEEKPQEVQTSRNVESIAEQMENPDLKNVGSSTGEKNERTSVAGTVRKCWPNRVAKEQISRRLDGNQYLFLPPNRYIFHGAEVYSDSEDDVLSSSSCGSNSDSGTCQSPSLEEPMEDESEIEEFYNGLEDEPDVPERAGGAGFGTDGDDQEAINEAISVKQEVTDMNYPSNKS
- deacetylation in vitro (SDS-PAGE, blots for acetyl-lysine and PCSK9) (Recombinant PCSK9): PCSK9 is deacetylated by SIRT1 in vitro
- increase in fluorescence caused by deacetylation of fluorogenic PCSK9 peptide (acetyl-PCSK9-AMC peptide): SIRT1 deacetylates fluorogenic PCSK9 peptide
